Results on one substance are retold here after article doi:10.1101/2023.01.07.523125.

In this experiment the target is human Slack channel (Slo2.2, KCNT1) (human) (UniProt Q5JUK3). Nature of the experiment: cryo-EM structure.

Substance “human Slack channel (Slo2.2, KCNT1) (from UniProt Q5JUK3 1-1230) (natural protein)” registered a stoichiometry N of 4.

For orientation: stoichiometry N means a count of units in the complex or per binding partner.
